From patent US20040048311A1

Experiments:
[1] = target: 38C13 IgM; assay: antibody microarray on FAST slide, purified 38C13 IgM, detection with goat anti-mouse IgM HRP, chemiluminescence
[2] = target: 38C13 IgM; assay: antibody microarray on FAST slide, 38C13 cell extract at 1:2000 dilution, detection with goat anti-mouse IgM HRP, chemiluminescence

Substance: S1C5 anti-idiotype monoclonal antibody
- lowest IgM concentration giving signal [1]: 0.1 µg/mL
- lowest spotted S1C5 concentration giving signal [1]: 25 µg/mL
- lowest printed S1C5 concentration giving signal [2]: 50 µg/mL
